Series [1] deals with GST-DEK PBD2-Mut2 (Homo sapiens). The series can be described thus: EMSA (agarose). The settings on record: only slightly reduced; indistinguishable from WT at higher molar ratios; 20 mM Hepes-KOH pH 7.6, 100 mM NaCl, 10 mM NaHSO3, 1 mM EDTA, 1 ug/ml BSA; 30 ul, 1 h at 37 C; 0.6% agarose gel in TBE. PAR overlay assays (poly(ADP-ribose) …); scale: DEK:DNA molar ratio at first detectable shift. Background: A gel shift assay detects complexes by their altered migration in electrophoresis.

Series [2] relates to GST-DEK WT (Homo sapiens). The series can be described thus: EMSA (agarose). The settings on record: 20 mM Hepes-KOH pH 7.6, 100 mM NaCl, 10 mM NaHSO3, 1 mM EDTA, 1 ug/ml BSA; 30 ul, 1 h at 37 C; 0.6% agarose gel in TBE. PAR overlay assays (poly(ADP-ribose) …); scale: DEK:DNA molar ratio at first detectable shift.

As to plasmid DNA (unnamed), the results for the binding signal in series [1] and in series [2] were 112 and 84, respectively.

For the origin of these results see article PMC6692024.
